{"source": "patent US20240075098A1", "target": "DTR", "data": [{"substance": "Diphtheria toxin (from UniProt P00588)", "values": [{"measurement": "death of cochlea outer hair cells in Prestin-P2A-DTR/+ mice after DT at P36", "value": "> 90", "unit": "%"}]}]}
